{"source": "paper PMC9877012", "binders": {"B1": {"name": "L-lactate oxidase (enzyme)", "chain": "MNNNDIEYNAPSEIKYIDVVNTYDLEEEASKVVPHGGFNYIAGASGDEWTKRANDRAWKHKLLYPRLAQDVEAPDTSTEILGHKIKAPFIMAPIAAHGLAHTTKEAGTARAVSEFGTIMSISAYSGATFEEISEGLNGGPRWFQIYMAKDDQQNRDILDEAKSDGATAIILTADSTVSGNRDRDVKNKFVYPFGMPIVQRYLRGTAEGMSLNNIYGASKQKISPRDIEEIAGHSGLPVFVKGIQHPEDADMAIKRGASGIWVSNHGARQLYEAPGSFDTLPAIAERVNKRVPIVFDSGVRRGEHVAKALASGADVVALGRPVLFGLALGGWQGAYSVLDYFQKDLTRVMQLTGSQNVEDLKGLDLFDNPYGYEY"}}, "key": {"[1]": {"biological_target": "Poly-L-lysine hydrobromide (MW, 70,000-150,000 Da)", "assay": "co-sedimentation; precipitation rate of LOX: LOX mixed with PLL, centrifuged at 18,000 x g for 20 min at 25 °C, LOX in the supernatant by absorbance at 280 nm; 5 µM LOX, 1 mM PLL, 5-20 mM (NH4)2SO4"}, "[2]": {"biological_target": "Poly-L-lysine hydrobromide (MW, 70,000-150,000 Da)"}}}
{"binder": "B1", "values": [{"measurement": "percent of LOX in the droplets", "setting": "[1]", "result": 90, "unit": "%"}, {"measurement": "relative enzyme activity of LOX (0.1 µM) with 0.02 mM PLL against LOX without PLL, 0-10 mM (NH4)2SO4 (about 15 times without and about five times with 10 mM ammonium sulfate)", "setting": "[2]", "result": 15, "unit": "fold"}]}
